# In publication PMC9765406:
# Columns and labels:
# [1] = molecular target: BfpD, type IV pilus (bundle-forming pilus) extension ATPase from enteropathogenic Escherichia coli (enteropathogenic Escherichia coli (EPEC)); experiment: cryo-EM structure
# [2] = molecular target: BfpD, type IV pilus (bundle-forming pilus) extension ATPase from enteropathogenic Escherichia coli (enteropathogenic Escherichia coli (EPEC)); experiment: negative-stain electron microscopy with reference-free 2D averaging
substance,measurement,setting,value
"BfpD, type IV pilus (bundle-forming pilus) extension ATPase from enteropathogenic Escherichia coli (enzyme)",stoichiometry N,[1],6
same,stoichiometry N,[2],6
